Here are results for 2 substances from doi:10.1101/2020.06.17.157057.

Assay [1] deals with Maltose Binding Protein (MBP), tethered between beads by DNA handles [MBP: P0AEX9]. Kind of assay: optical tweezers.
Assay [2] has the same target. Briefly: optical tweezers. This is another data set of the same source.

Read-outs that look alike come from different tables or passages of the source.

“GroEL398A (slowly hydrolyzing GroEL) (from UniProt P0A6F5 1-548) (natural protein)” gave a tethers that switched to a prolonged unfolded state in assay [1] of 30%.

For “GroEL (wild type) (from UniProt P0A6F5 2-525) (natural protein)”, the tethers that switched to a prolonged unfolded state in assay [1] is 50%; in assay [2] it was 20%.
